Measurements as given in patent publication US20220282217A1 (BIONTECH US, published 2022).

Assays:
[1] = biological target: T1, HLA class I molecule A02.01; test: pMHC-I dissociation half-life, 125I-b2m
T1 construct: Purified MHC class I complex; also called HLA-A02:01
Outline: (§1)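 Biotinylated MHC-I heavy chain made in E. coli, captured on streptavidin plates and complexed with peptide and radiolabelled light chain. Dissociation started with excess unlabelled light chain at 37 °C. Stability is the half-life in hours from scintillation counts.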

[2] = biological target: T1, HLA class I molecule A02.01; test: competition binding assay with purified class I MHC: test peptide at varying concentrations displaces a radiolabeled reference peptide, read by size exclusion gel filtration; column 'Observed MHC Affinity (nM)'
Protocol: (§2) Peptides were incubated at varying concentrations with these complexes for 2 days, and the amount of remaining radiolabeled peptide bound to […] was measured using size exclusion gel-filtration.

[3] = biological target: T2, HLA-A01:01 class I MHC molecule (human); test: pMHC-I dissociation at 37 C, 125I-labeled b2m, scintillation counts
T2 construct: heavy chain biotinylated and made in E. coli in the stability assay
Protocol: (§3) Briefly, synthetic genes encoding biotinylated MHC-I heavy and light chains are expressed in E. coli and purified from inclusion bodies using standard methods. […] These reactions are carried out in streptavidin coated microplates to bind the biotinylated MHC-I heavy chains to the surface and allow measurement of radiolabeled light chain to monitor complex formation. Dissociation is initiated by addition of higher concentrations of unlabeled light-chain and incubation at 37° C. Stability is defined as the length of time in hours it takes for half of the complexes to dissociate, as measured by scintillation counts.

[4] = biological target: HLA-A03:01 class I MHC molecule (human); test: as above
Protocol: as §3

[5] = biological target: HLA-A03:01 class I MHC molecule (human); test: competition with a radiolabeled reference peptide for purified MHC I, gel filtration; 'Affinity (nM)'
Protocol: as §2

[6] = biological target: HLA-A11:01 class I MHC molecule (human); test: competition with a radiolabeled reference peptide for purified MHC I, gel filtration; 'Affinity (nM)'; affinity assay, column 'Affinity (nM)'
Protocol: as §2

HLA-A02.01 [7] = biological target: T3, HLA-A02.01 (human); test: pMHC-I dissociation half-life, 125I-b2m
T3 construct: Purified class I MHC
Outline: as §1

HLA-A24.02 [8] = biological target: T4, HLA-A24.02 (human); test: pMHC-I dissociation half-life, 125I-b2m
T4 construct: Purified class I MHC
Outline: as §1

HLA-A02.01 [9] = biological target: T3, HLA-A02.01; test: competition with radiolabeled reference peptide, purified MHC I
Protocol: as §2

HLA-A24.02 [10] = biological target: T4, HLA-A24.02; test: as above
Protocol: as §2

HLA-A01.01 = biological target: T5, HLA-A01.01 (human); test: as above
T5 construct: Purified class I MHC
Protocol: as §2

[11] = biological target: HLA-A24:02 class I MHC molecule (human); test: pMHC-I dissociation at 37 C, 125I-labeled b2m, scintillation counts
Protocol: as §3

[12] = biological target: HLA-A24:02 class I MHC molecule (human); test: competition with a radiolabeled reference peptide for purified MHC I, gel filtration; 'Affinity (nM)'
Protocol: as §2

[13] = biological target: T6, HLA-A02.01 class I MHC molecule (prepared complex) (human); test: dissociation of peptide-MHC-I complex at 37 C, 125I-labelled b2m, scintillation
Protocol: as §3

[14] = biological target: T6, HLA-A02.01 class I MHC molecule …; test: displacement of radiolabeled reference peptide from class I MHC, gel filtration; 'Affinity (nM)'
Protocol: as §2

[15] = biological target: T7, HLA class I molecule A03.01; test: pMHC-I dissociation half-life, 125I-b2m
T7 construct: Purified MHC class I complex; also called HLA-A03:01
Outline: as §1

[16] = biological target: T7, HLA class I molecule A03.01; test: competition with radiolabeled reference peptide on purified MHC I
Protocol: as §2

[17] = biological target: HLA-B08:01 class I MHC molecule (human); test: pMHC-I dissociation at 37 C, 125I-labeled b2m, scintillation counts
Protocol: as §3

[18] = biological target: T7, HLA class I molecule A03.01; test: pMHC-I dissociation assay with 125I-labeled beta2m light chain at 37 C, scintillation counts; time in hours for half of the complexes to dissociate
Protocol: as §3

HLA-A11.01 [19] = biological target: T8, HLA-A11.01 (human); test: as above
T8 construct: Purified class I MHC
Protocol: as §3

HLA-A11.01 [20] = biological target: T8, HLA-A11.01; test: competition binding assay with purified class I MHC: test peptide at varying concentrations displaces a radiolabeled reference peptide, read by size exclusion gel filtration; column 'Observed MHC Affinity (nM)'
Protocol: as §2

HLA-B*40:02 = HLA-B*40:02 (human); test: peptides eluted from HLA-peptide complexes by acid wash, targeted MS/MS (PRM); 293T cells transduced with GATA3 neoORF, expressing HLA-B*40:02
Protocol: (§4) Between 50 and 700 million of the transduced cells expressing peptides encoded by the GATA3 neoORF sequence were cultured and peptides were eluted from HLA-peptide complexes using an acid wash. Eluted peptides were then analyzed by targeted MS/MS using PRM.

HLA-A*30:02 = HLA-A*30:02 (human); test: peptides eluted from HLA-peptide complexes by acid wash, targeted MS/MS (PRM); 293T cells transduced with GATA3 neoORF, expressing HLA-A*30:02
Protocol: as §4

HLA-A02.01 [21] = biological target: HLA-A02.01 (human); test: pMHC-I complex dissociation at 37 C, 125I-b2m, half-life
Outline: as §1

HLA-A03.01 [22] = biological target: T9, HLA-A03.01 (human); test: as above
T9 construct: As for HLA-A02.01
Outline: as §1

HLA-A02.01 [23] = biological target: HLA-A02.01 (human); test: competition vs radiolabeled reference peptide on purified MHC I, gel filtration
Protocol: as §2

HLA-A03.01 [24] = biological target: T9, HLA-A03.01; test: as above
Protocol: as §2

HLA-B08.01 [25] = biological target: T10, HLA-B08.01 (human); test: pMHC-I dissociation half-life, 125I-b2m
T10 construct: Purified class I MHC
Outline: as §1

HLA-B07.02 [26] = biological target: T11, HLA-B07.02 (human); test: pMHC-I dissociation half-life, 125I-b2m
T11 construct: Purified class I MHC
Outline: as §1

HLA-A03.01 [27] = biological target: T12, HLA-A03.01 (human); test: pMHC-I dissociation half-life, 125I-b2m
T12 construct: Purified class I MHC
Outline: as §1

HLA-B08.01 [28] = biological target: T10, HLA-B08.01; test: competition with radiolabeled reference peptide, purified MHC I
Protocol: as §2

HLA-B07.02 [29] = biological target: T11, HLA-B07.02; test: as above
Protocol: as §2

HLA-A03.01 [30] = biological target: T12, HLA-A03.01; test: as above
Protocol: as §2

[31] = biological target: T13, HLA class I molecule B08.01; test: pMHC-I dissociation half-life, 125I-b2m
T13 construct: Purified MHC class I complex; also called HLA-B08:01
Outline: as §1

[32] = biological target: T1, HLA class I molecule A02.01; test: competition with radiolabeled reference peptide on purified MHC I
Protocol: as §2

[33] = biological target: T13, HLA class I molecule B08.01; test: as above
Protocol: as §2

[34] = biological target: HLA-B08:01 class I MHC molecule (human); test: competition with a radiolabeled reference peptide for purified MHC I, gel filtration; 'Affinity (nM)'
Protocol: as §2

[35] = biological target: T2, HLA-A01:01 class I MHC molecule; test: as above
Protocol: as §2

HLA-B07.02 [36] = biological target: T14, HLA-B07.02 (human); test: pMHC-I complex dissociation at 37 C, 125I-b2m, half-life
T14 construct: As for HLA-A02.01
Outline: as §1

HLA-B07.02 [37] = biological target: T14, HLA-B07.02; test: competition vs radiolabeled reference peptide on purified MHC I, gel filtration
Protocol: as §2

[38] = biological target: T15, HLA class I molecule B07.02; test: pMHC-I dissociation half-life, 125I-b2m
T15 construct: Purified MHC class I complex; also called HLA-B07:02
Outline: as §1

[39] = biological target: T16, HLA class I molecule A24.02; test: pMHC-I dissociation half-life, 125I-b2m
T16 construct: Purified MHC class I complex; also called HLA-A24:02
Outline: as §1

[40] = biological target: T16, HLA class I molecule A24.02; test: competition with radiolabeled reference peptide on purified MHC I
Protocol: as §2

[41] = biological target: T15, HLA class I molecule B07.02; test: as above
Protocol: as §2

## SMLTGPPARV (also called GATA3 . . ; CSNH)
[1]
  Stability (T1/2 (h)): 21.7 h
[2]
  IC50: 14 nM

## MANGSLLNY [BTK, C481S peptide MANGSLLNY]
[3]
  Stability (half-life (hr.)): 13 min
[4]
  Stability (half-life (hr.)): 14.3 min
[5]
  IC50: 35.6 nM
[6]
  IC50: 536 nM

## MNWRPILTII (also called TP53, R248W)
HLA-A02.01 [7]
  Stability (T1/2 (h)): 0.4 h
HLA-A24.02 [8]
  Stability (T1/2 (h)): 0 h
HLA-A02.01 [9]
  IC50: 1030 nM
HLA-A24.02 [10]
  IC50: 44900 nM

## VMSDTTYKIY (also called TTK(-1))
HLA-A01.01
  IC50: 376 nM

## EYMANGSLL [BTK, C481S peptide EYMANGSLL]
[11]
  Stability (half-life (hr.)): 343 min
[12]
  IC50: 4.96 nM

B1: EGFR_T790M peptide LIMQLMPFGC (peptide)
peptide: LIMQLMPFGC
notes: synthetic peptide holding the EGFR T790M mutation
[13]
  Stability (half-life (hr.)): 22.9 min
[14]
  IC50: 132 nM

## KVSRENTSPK (also called HER2, L7555)
[15]
  Stability (T1/2 (h)): 13.5 h
[16]
  IC50: 7 nM

## MANGSLLNYL [BTK_C481S peptide MANGSLLNYL]
[17]
  Stability (half-life (hr.)): 0 h

## KIMFATLQR (also called GATA3 . . ; CSNH)
[16]
  IC50: 2.5 nM
[18]
  Observed MHC Stability: 5.6 h
HLA-A11.01 [19]
  Observed MHC Stability: 8.9 h
HLA-A11.01 [20]
  IC50: 23 nM

## AESKIMFATL [GATA3 neoORF peptide AESKIMFATL]
HLA-B*40:02
  binding result: binds

## SIMKPKRDGY [GATA3 neoORF peptide SIMKPKRDGY]
HLA-A*30:02
  binding result: binds

## KLFSCLSFL (also called C15ORF40(+1))
HLA-A02.01 [21]
  Stability (T1/2 (h)): 14.3 h
HLA-A03.01 [22]
  Stability (T1/2 (h)): 0.8 h
HLA-A02.01 [23]
  IC50: 6 nM
HLA-A03.01 [24]
  IC50: 308 nM

## MSDTTYKIY (also called TTK(-1))
HLA-A01.01
  IC50: 10.2 nM

## KLMLLRLNL (also called SEC31A(-1))
HLA-A02.01 [7]
  Stability (T1/2 (h)): 16.9 h
HLA-B08.01 [25]
  Stability (T1/2 (h)): 0 h
HLA-B07.02 [26]
  Stability (T1/2 (h)): 1.5 h
HLA-A03.01 [27]
  Stability (T1/2 (h)): 0 h
HLA-B08.01 [28]
  IC50: 58.4 nM
HLA-B07.02 [29]
  IC50: 133 nM
HLA-A03.01 [30]
  IC50: 210 nM

## YQQQQQSDL (also called MYC, E39D)
[1]
  Stability (T1/2 (h)): 0.4 h
[31]
  Stability (T1/2 (h)): 0 h
[32]
  IC50: 799 nM
[33]
  IC50: 18900 nM

## SLLNYLREM [BTK_C481S peptide SLLNYLREM]
[17]
  Stability (half-life (hr.)): 0 h
[34]
  IC50: 960 nM

## YMANGSLLNY [BTK, C481S peptide YMANGSLLNY]
[3]
  Stability (half-life (hr.)): 52 min
[4]
  Stability (half-life (hr.)): 16.7 min
[35]
  IC50: 13.2 nM
[5]
  IC50: 95.9 nM
[6]
  IC50: 974 nM

## AESKIMFAT [GATA3 neoORF peptide AESKIMFAT]
HLA-B*40:02
  binding result: binds

B2: KLSDSRTAL (peptide)
peptide: KLSDSRTAL
notes: also called FRG1B, I1OT (so in the source); FRG1B, I10T
HLA-A02.01 [21]
  Stability (T1/2 (h)): 2.8 h
HLA-B07.02 [36]
  Stability (T1/2 (h)): 6.8 h
HLA-B07.02 [37]
  IC50: 9 nM

## IMKPKRDGY [GATA3 neoORF peptide IMKPKRDGY]
HLA-A*30:02
  binding result: binds

## FQMQPLSLM (also called JAK1(-1))
[1]
  Stability (T1/2 (h)): 0.3 h
[31]
  Stability (T1/2 (h)): 0 h
[38]
  Stability (T1/2 (h)): 0 h
[39]
  Stability (T1/2 (h)): 0 h
[32]
  IC50: 553 nM
[40]
  IC50: 14600 nM

## KLRSPLWIF (also called SMAP1(-1))
HLA-A24.02 [10]
  IC50: 828 nM

## ALSASNSCF (also called FRG1B, L52S)
[1]
  Stability (T1/2 (h)): 0.3 h
[38]
  Stability (T1/2 (h)): 0 h
[39]
  Stability (T1/2 (h)): 0.2 h
[32]
  IC50: 728 nM
[41]
  IC50: 684 nM
[40]
  IC50: 16300 nM
